To fix the notation:
B1: Luk17 (designed binder)
chain: LPAPKNLVVSRVTEDSARLSWTAPDAAFDSFWITYEEKFYRGEAIVLTVPGSERSYDLTGLKPGTEYKVWIVGVKGGQGSWPLSAIFTT
notes: also called Luk17 anti-LukAB FN3 domain; not shown: C-terminal poly-histidine tag
B2: Luk24 (designed binder)
chain: LPAPKNLVVSRVTEDSARLSWTAPDAAFDSFQIGYFELWPNGEAIVLTVPGSERSYDLTGLKPGTEYEVFIRGVKGGLYSYPLSAIFTT
notes: not shown: C-terminal poly-histidine tag
B3: Luk19 (designed binder)
chain: LPAPKNLVVSRVTEDSARLSWYHAIHRLNHFDSFLIQYQESEKVGEAIVLTVPGSERSYDLAGLKPGTEYTVSIYGVLPDAFVSSNPLSAIFTT
notes: as for B2
B4: Luk20 (designed binder)
chain: LPAPKNLVVSRVTEDSARLSWYHAIHRLNHFDSFLIQYQESEKVGEAIVLTVPGSERSYDLTGLKPGTEYTVSIYGVLPDAFVSSNPLSAIFTT
notes: as for B2
B5: Luk9 (designed binder)
chain: LPAPKNLVVSRVTEDSARLSWDRTYSLLNYFDSFLIQYQESEKVGEAIVLTVPGSERSYDLTGLKPGTEYTVSIYGVGGQHPTYESNPLSAIFTT
notes: as for B2
B6: Luk10 (designed binder)
chain: LPAPKNLVVSRVTEDSARLSWAASENAFVFDSFLIQYQESEKVGEAIVLTVPGSERSYDLTGLKPGTEYTVSIYGVGGKLHNQFEWLSNPLSAIFTT
notes: also called anti-LukD FN3 domain Luk10; not shown: C-terminal poly-histidine tag
B7: Luk12 (designed binder)
chain: LPAPKNLVVSRVTEDSARLSWRAKPWAPKFDSFLIQYQESEKVGEAIVLTVPGSERSYDLTGLKPGTEYTVSIYGVKASEKFIESNPLSAIFTT
notes: also called Luk12 anti-LukD FN3 domain; not shown: C-terminal poly-histidine tag
B8: Luk22 (designed binder)
chain: LPAPKNLVVSRVTEDSARLSWRAKPWAPKFDSFLIQYQESEKVGEAIVLTVPGSERSYDLTGLKPGTEYAVSIYGVKASEKFIESNPLSAIFTT
notes: also called anti-LukD FN3 domain Luk22; not shown: C-terminal poly-histidine tag
B9: Luk11 (designed binder)
chain: LPAPKNLVVSRVTEDSARLSWRAKPWAPKFDSFLIQYQESEKVGEAIVLTVPGSERSYDLTGLKPGTEYTVSIYGVSAIKPGHTSNPLSAIFTT
notes: as for B2
B10: Luk8 (designed binder)
chain: LPAPKNLVVSRVTEDSARLSWKRKPWAPIFDSFLIQYQESEKVGEAIVLTVPGSERSYDLTGLKPGTEYTVSIYGVWDHAGPKYEIESNPLSAIFTT
notes: as for B2
B11: Luk21 (designed binder)
chain: LPAPKNLVVSRVTEDSARLSWVTKPWAEYFDSFLIQYQESEKVGEAIVLTVPGSERSYDLTGLKPGTEYTVSIYGVWDHAGPKYEIESNPLSAIFTT
notes: as for B2

The target of one assay is T1, Recombinant LukA′B toxoid complex (S. aureus, UniProt Q2FFA2 28-351; P21224 30-338).
T1 construct: also called modified LukA′B toxoid complex
T1 sequence 1: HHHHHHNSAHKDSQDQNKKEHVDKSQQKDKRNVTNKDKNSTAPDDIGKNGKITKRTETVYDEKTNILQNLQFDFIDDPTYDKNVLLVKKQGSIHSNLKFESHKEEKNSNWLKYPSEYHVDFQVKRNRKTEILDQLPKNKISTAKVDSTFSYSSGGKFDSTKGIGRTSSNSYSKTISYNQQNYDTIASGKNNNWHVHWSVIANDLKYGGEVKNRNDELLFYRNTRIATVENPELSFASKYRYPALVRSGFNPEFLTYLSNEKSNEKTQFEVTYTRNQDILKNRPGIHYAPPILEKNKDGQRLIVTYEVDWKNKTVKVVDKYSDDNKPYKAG
T1 sequence 2: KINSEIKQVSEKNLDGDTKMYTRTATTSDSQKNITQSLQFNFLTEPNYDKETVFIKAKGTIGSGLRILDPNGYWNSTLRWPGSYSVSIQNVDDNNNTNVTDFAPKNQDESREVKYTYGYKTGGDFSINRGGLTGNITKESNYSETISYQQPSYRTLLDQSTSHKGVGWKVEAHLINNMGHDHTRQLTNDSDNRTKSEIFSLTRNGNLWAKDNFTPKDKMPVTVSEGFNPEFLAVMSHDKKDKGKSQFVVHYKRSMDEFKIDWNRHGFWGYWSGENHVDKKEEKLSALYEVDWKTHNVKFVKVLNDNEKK
The assay is described as follows: ELISA after cis-display panning. For orientation: An ELISA detects its analyte on a solid surface through an enzyme-linked reagent.
With B1, the binding result is given as “binds”. Still for that read-out and setting: the same measure for B2: “binds”; for B3: “binds”. The same measure, in the same setting: the same measure for B4: “binds”.

The next assay concerns the target T2, LukD (S. aureus, UniProt Q2FXB1 27-327).
T2 construct: also called leukotoxin D
T2 sequence: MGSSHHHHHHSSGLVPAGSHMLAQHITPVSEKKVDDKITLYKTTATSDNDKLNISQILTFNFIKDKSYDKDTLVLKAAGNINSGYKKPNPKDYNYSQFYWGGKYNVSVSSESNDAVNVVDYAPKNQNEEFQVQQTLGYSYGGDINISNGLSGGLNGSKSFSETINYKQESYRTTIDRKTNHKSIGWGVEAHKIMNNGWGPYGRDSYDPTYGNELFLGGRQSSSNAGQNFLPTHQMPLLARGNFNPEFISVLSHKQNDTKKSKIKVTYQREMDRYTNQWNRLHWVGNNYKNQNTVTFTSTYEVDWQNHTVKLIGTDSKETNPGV
The assay is described as follows: ELISA after cis-display panning.
Consider B5, for which the binding result is on record as “binds”. On the same count and under the same terms, the same measure for B6: “binds”; for B7: “binds”. Same read-out and setting: with B8 the entry was “binds”; with B9, “binds”; with B10, “binds”. Still for that read-out and setting: the same measure for B11: “binds”.

Source of the values: patent US20150210756A1 (NEW YORK UNIVERSITY, published 2015).
